# Experimental data reported in US20110059095A1 (Regeneron, published 2011).
# Changes are numbered by the printed parent chain. Where no end group is shown, it is not given here. The star is where a group is joined. Biotin = O=C1N[C@H]2[C@H](CS[C@H]2CCCCC(=O)*)N1
# B1: H2M611N (antibody, V domains shown)
# VH: EVQLLESGGGLVQPGGSLRLSCAASGFTFSSYAMTWVRQAPGKGLYWVSAISGSGGSAYYADSVKGRFTISRDNSKNTLYLQMNSLRAEDTAVYYCAKEGDSGYDLDYWGRGTLVTVSS
# VL: DIQMTQSPSSLSASVGDRVTITCRARQGISNYLAWLQQKPGKAPKSLIYAASSLQSGVPSKFSGSGSGTDFTLTISSLQPEDFATYYCQQYKSSPLTFGGGTKVEIK
# notes: chimeric: human variable, mouse constant domains
# B2: H1M590N (antibody, V domains shown)
# VH: EVQLVESGGGLVQPGRSLRLSCAASGFTFDDYAMHWVRQAPGKGLEWVSGITWNSGTMAYADSVKGRFTISRDNAKNSLYLQMNSLRAEDTALYYCAKENWAFDYWGQGTLVTVSS
# VL: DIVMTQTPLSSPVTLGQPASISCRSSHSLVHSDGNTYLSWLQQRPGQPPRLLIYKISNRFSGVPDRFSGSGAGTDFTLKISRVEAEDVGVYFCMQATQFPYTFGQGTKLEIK
# notes: as for B1
# B3: H1M612N (antibody, V domains shown)
# VH: B2 VH with T57N, L111R, T113I
# VL: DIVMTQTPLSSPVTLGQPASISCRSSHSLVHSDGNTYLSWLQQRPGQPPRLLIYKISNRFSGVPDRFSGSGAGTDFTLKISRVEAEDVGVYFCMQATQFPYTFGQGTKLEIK
# notes: as for B1
# B4: H2M614N (antibody, V domains shown)
# VH: B2 VH with A40V, T57S, M58I, A59D, L93F, A97V, N100D, W101E
# VL: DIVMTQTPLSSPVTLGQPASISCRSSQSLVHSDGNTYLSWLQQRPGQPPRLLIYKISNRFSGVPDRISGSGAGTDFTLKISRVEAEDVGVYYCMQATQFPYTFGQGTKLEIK
# notes: as for B1
# B5: H1M592N (antibody, V domains shown)
# VH: EVQLVESGGGLVQPGRSLRLSCAASGFTFDDYAMHWVRQAPGKGLEWVSGISWNSGSIGYADSVKGRFTISRDNAKNSLYLQMNSLRAEDTALYYCAKDRFPPYKYNSGGFSDAFEIWGQGTMVTVSS
# VL: not shown
# notes: as for B1
# B6: H1M595N (antibody, V domains shown)
# VH: EVQLVESGGGLVQPGGSLRLSCAASGFTFSSYDMHWVRQVTGKGLEWVSVIGTVGDTYYPGSLKGRFTISRENAKNSLYLQMNTLRAGDTAVYYCARTGAAAHSYYYGMDVWGQGTMVTVSS
# VL: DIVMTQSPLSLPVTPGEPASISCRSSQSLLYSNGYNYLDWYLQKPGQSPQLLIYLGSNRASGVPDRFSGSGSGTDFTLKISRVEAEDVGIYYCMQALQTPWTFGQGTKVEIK
# notes: as for B1
# Biological target: T1, Peptide A (human PAR-2), unbiotinylated (Human)
# T1 construct: also called Peptide A No Biotin
# T1 peptide: GTNRSSKGRSLIGKVDGT
# Test: peptide ELISA
# Protocol: (§1) Anti-PAR-2 antibodies were tested for their ability to bind to the PAR-2 peptides. Various PAR-2 Peptides (Table 3) were coated onto 96-well plates at a concentration of 2 μg/ml and incubated overnight followed by blocking in a suitable blocking agent for one hour. […] Purified anti-PAR-2 antibodies were added to the plate coated with PAR-2 peptides to a final concentration ranging from 0.2 to 2.0 μg/ml and incubated for one hour at room temperature. Detection of bound antibodies was determined with Horse-Radish Peroxidase (HRP) conjugated anti-mouse or human IgG (Jackson Immuno Research Lab, West Grove, Pa.) and developed by standard colorimetric response using tetramethylbenzidine (TMB) substrate. Absorbance was read at OD₄₅₀ for 0.1 second.
row,Binder,OD450
1,B1,1 to 4 od
2,B2,1 to 4 od
3,B3,1 to 4 od
4,B4,0.5 to 0.99 od
5,B5,1 to 4 od
6,B6,1 to 4 od

# Biological target: T2, Peptide A (human PAR-2), N-terminal biotinylated (Human, N-terminal biotin via G4S linker)
# T2 construct: also called Peptide A N-Term
# T2 peptide: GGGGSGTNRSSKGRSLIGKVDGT
# Test: peptide ELISA
# Protocol: as §1
row,Binder,OD450
1,B1,1 to 4 od
2,B2,1 to 4 od
3,B3,1 to 4 od
4,B4,1 to 4 od
5,B5,1 to 4 od
6,B6,1 to 4 od

# Biological target: T3, Peptide A (human PAR-2), C-terminal biotinylated (Human, C-terminal biotin via G4S linker)
# T3 construct: also called Peptide A C-Term
# Test: peptide ELISA
# Protocol: as §1
row,Binder,OD450
1,B1,1 to 4 od
2,B2,1 to 4 od
3,B3,1 to 4 od
4,B4,1 to 4 od
5,B6,1 to 4 od

# Biological target: T4, Peptide B (human PAR-2), unbiotinylated (Human)
# T4 construct: also called Peptide B No Biotin
# T4 peptide: SLIGKVDGTSHVTG
# Test: peptide ELISA
# Protocol: as §1
row,Binder,OD450
1,B1,1 to 4 od
2,B2,0 to 0.09 od
3,B3,0 to 0.09 od
4,B4,0 to 0.09 od
5,B6,0 to 0.09 od

# Biological target: T5, Peptide B (human PAR-2), N-terminal biotinylated (Human)
# T5 construct: also called Peptide B N-Term
# T5 peptide: Biotin-GGGGSSLIGKVDGTSHVTG
# Test: peptide ELISA
# Protocol: as §1
row,Binder,OD450
1,B1,1 to 4 od
2,B2,0 to 0.09 od
3,B3,0 to 0.09 od
4,B4,0 to 0.09 od
5,B5,0.5 to 0.99 od
6,B6,0 to 0.09 od

# Biological target: T6, Peptide B (human PAR-2), C-terminal biotinylated (Human, not fully specified)
# T6 construct: also called Peptide B C-Term
# T6 peptide: SLIGKVDGTSHVTGGGGGS-biotin
# Test: peptide ELISA
# Protocol: as §1
row,Binder,OD450
1,B1,1 to 4 od
2,B2,0 to 0.09 od
3,B3,0 to 0.09 od
4,B4,0 to 0.09 od
5,B6,0 to 0.09 od

# Biological target: T7, Peptide C (human PAR-2), N-terminal biotinylated (Human)
# T7 construct: also called Peptide C N-Term
# T7 peptide: Biotin-GGGGSSLIGKV
# Test: peptide ELISA
# Protocol: as §1
row,Binder,OD450
1,B1,0 to 0.09 od
2,B2,0 to 0.09 od
3,B3,0 to 0.09 od
4,B4,0 to 0.09 od
5,B5,1 to 4 od
6,B6,0.5 to 0.99 od

# Biological target: T8, Peptide C (human PAR-2), C-terminal biotinylated (Human)
# T8 construct: also called Peptide C C-Term
# T8 peptide: SLIGKVGGGGS-biotin
# Test: peptide ELISA
# Protocol: as §1
row,Binder,OD450
1,B1,0 to 0.09 od
2,B2,0 to 0.09 od
3,B3,0 to 0.09 od
4,B4,0 to 0.09 od

# Biological target: T1, Peptide A (human PAR-2), unbiotinylated
# Test: SPR, antibody captured
# Protocol: (§2) Equilibrium dissociation constants (KD values) for antigen binding to selected purified PAR-2 antibodies were determined by surface kinetics using a real-time surface plasmon resonance biosensor assay. Antibody was captured on either a rabbit anti-mouse IgG polyclonal antibody (GE Healthcare, Piscataway, N.J.) surface or a goat anti-human IgG polyclonal antibody (Jackson Immuno Research Lab, West Grove, Pa.) surface created through direct amine chemical coupling to a BIACORE™ CM5 sensor chip to form a captured antibody surface. […] Antigen-antibody binding and dissociation were monitored in real time at room temperature. Kinetic analysis was performed to calculate KD and half-life of antigen/antibody complex dissociation (Table 10). For those antibodies where no T_{1/2} value is shown, steady state analysis was used to calculate the KD value. NB: no binding observed under current experimental conditions. ND: not determined.
Binder,Kd,T1/2
B1,72.8 nM,4.1 min

# Biological target: T4, Peptide B (human PAR-2), unbiotinylated
# Test: SPR, antibody captured
# Protocol: as §2
Binder,Kd,T1/2
B1,1090 nM,1.2 min

# Biological target: T3, Peptide A (human PAR-2), C-terminal …
# Test: SPR, peptide immobilized
# Protocol: (§3) In another series of experiments, equilibrium dissociation constants (KD values) for purified antibody binding to selected biotinylated and unbiotinylated forms of PAR-2 peptides were determined by surface kinetics using a real-time surface plasmon resonance biosensor assay. Neutravidin (Pierce, Rockford, Ill.) was covalently coupled to the surface of a Biacore™ C1 chip or CM5 chip using amine coupling chemistry. Biotinylated (N-Term or C-Term) PAR-2 peptides (Peptides A and B) were immobilized on the surface via the high affinity binding interaction between biotin and the amine coupled Neutravidin.
# (§4) In a first experiment using this format, varying concentrations (ranging from 5 to 100 μg/ml) of purified antibody were injected at a rate of 50 μl/min over a surface coated with immobilized peptide at low-density (<1RU) for 300 seconds. Antibody-peptide binding and dissociation was monitored in real time 25° C.
Binder,Kd,T1/2
B2,1.27 nM,13 min

# Biological target: T6, Peptide B (human PAR-2), C-terminal …
# Test: SPR, peptide immobilized
# Protocol: as §3, §4
row,Binder,binding result
1,B2,no binding (tested: 5 to 100 ug/ml antibody)

# Biological target: T9, full length human PAR-2 (human, UniProt P55085 26-397)
# T9 construct: overexpressed on HEK293-derived 293/D9 cells; also called 293/D9/hPAR-2rec cells
# Test: cell ELISA, 10 ug/ml antibody
# Description: HEK293 cells were transfected with an NF-κB-luciferase-IRES-eGFP reporter plasmid. […] A clonal cell line, named D9, having low background levels of luciferase activity and high levels of eGFP when induced with IL-1β was made by a series of successive sorts of cell populations using flow cytometry. The 293/D9 cell line was then separately transfected with human PAR-2 or mouse PAR-2 to create the stable cell lines 293/D9/h PAR-2rec and 293/D9/m PAR-2rec, respectively.
# Binding of anti-PAR-2 antibodies to 293/D9/hPAR-2rec cells was determined by ELISA. 293/D9 and 293/D9/hPAR-2rec cells were plated at a density of 5×10⁴ cells/well in media and incubated overnight at 37° C. and 5% CO₂. Purified antibody was added to the cells to a final concentration of 10 μg/ml and incubated at room temperature for one hour. Cells were then fixed and washed before detection of bound antibodies with HRP conjugated anti-mouse IgG and developed by standard colorimetric response using TMB substrate. Absorbance was read at OD₄₅₀ for 0.1 second.
# T9 sequence (P55085 26-397 G138A limits assumed): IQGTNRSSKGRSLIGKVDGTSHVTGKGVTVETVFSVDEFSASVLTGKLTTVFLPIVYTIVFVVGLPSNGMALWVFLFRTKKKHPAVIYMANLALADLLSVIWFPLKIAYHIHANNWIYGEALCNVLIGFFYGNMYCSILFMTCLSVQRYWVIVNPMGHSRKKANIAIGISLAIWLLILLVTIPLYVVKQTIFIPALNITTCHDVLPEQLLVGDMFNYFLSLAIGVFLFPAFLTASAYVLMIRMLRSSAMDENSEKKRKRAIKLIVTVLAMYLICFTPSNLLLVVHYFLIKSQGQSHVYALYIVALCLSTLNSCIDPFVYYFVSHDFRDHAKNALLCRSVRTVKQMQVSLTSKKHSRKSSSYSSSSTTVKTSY
row,Binder,A450 ratio (293/D9/hPAR-2rec to 293/D9 cells)
1,B2,1.81

# Biological target: T1, Peptide A (human PAR-2), unbiotinylated
# Test: SPR, antibody captured, steady state
# Protocol: as §2
row,Binder,Kd
1,B2,173 nM
2,B3,180 nM
3,B4,470 nM
4,B5,2100 nM
5,B6,510 nM
